Assay results taken from the supplement of paper PMC10567573.

B1: FAM107A (parent)
chain: LQRVLEHRRRNQLIKKKKEELEAK

Variants of: B1
Experiment: protein stability index of a GFP-peptide fusion (GPS, HEK-293T) (PSI 1-6); higher = more stable
Conditions: c terminus: a fixed tail appended
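Note: lentivirally expressed fusions sorted by FACS into six bins by GFP to DsRed ratio, PSI derived from sequencing read proportions per bin multiplied by bin number.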

Going from LQRVLEMRRRNQLIKKKKEELEAK to LQRVLEQRRRNQLIKKKKEELEAK, the protein stability index rises from 3.15 to 3.75.

First: LQRVLEKRRRNQLIKKKKEELEAK
Second: LQRVLEFRRRNQLIKKKKEELEAK
The protein stability index of the first is lower: 1.82 for the first, 3.1 for the second.

First: LQRVLEHRHRNQLIKKKKEELEAK
Second: LQRVLEHRDRNQLIKKKKEELEAK
The protein stability index of the first is lower: 3.65 for the first, 3.96 for the second.

Compared with LQRVLEHRVRNQLIKKKKEELEAK, LQRVLEHRLRNQLIKKKKEELEAK is lower in protein stability index: 2.16 for the first, 1.72 for the second.

First: LQRVLEHRTRNQLIKKKKEELEAK
Second: LQRVLEHRARNQLIKKKKEELEAK
The protein stability index of the first is lower: 4.07 for the first, 4.4 for the second.

First: LQRVLEHVRRNQLIKKKKEELEAK
Second: LQRVLEHARRNQLIKKKKEELEAK
The protein stability index of the first is lower: 3.05 for the first, 3.43 for the second.

First: LQRVLEHTRRNQLIKKKKEELEAK
Second: LQRVLEHLRRNQLIKKKKEELEAK
The protein stability index of the first is higher: 3.87 for the first, 2.15 for the second.

Going from LQRHLEHRRRNQLIKKKKEELEAK to LQRQLEHRRRNQLIKKKKEELEAK, the protein stability index rises from 3.68 to 4.61.

Compared with LQRVLEHRRRNQLIKKKKEECEAK, LQRVLEHRRRNQLIKKKKEEVEAK is higher in protein stability index: 3.3 for the first, 3.36 for the second.

Going from LQRVLEHRRRNQLIKKKKEEKEAK to LQRVLEHRRRNQLIKKKKEETEAK, the protein stability index rises from 2.99 to 3.74.

Going from LQRVLEHRRRNQLIKKKKEEPEAK to LQRVLEHRRRNQLIKKKKLELEAK, the protein stability index falls from 3.46 to 1.86.

Going from LQRVLEHRRRNQLIKKKKCELEAK to LQRVLEHRRRNQLIKKKKQELEAK, the protein stability index rises from 2.46 to 2.56.

Compared with LQRVLEHRRRNQLIKKKKIELEAK, LQRVLEHRRRNQLIKKKKHELEAK is lower in protein stability index: 3.12 for the first, 2.87 for the second.

Compared with LQRVLEHRRRNQLIKKKKEKLEAK, LQRVLEHRRRNQLIKKKKEDLEAK is higher in protein stability index: 3.34 for the first, 3.71 for the second.

First: LQRVLEHRRRNQLIKKKKESLEAK
Second: LQRVLEHRRRNQLIKKKKETLEAK
The protein stability index of the first is higher: 3.99 for the first, 3.45 for the second.

Compared with LQRVLEHRRRNQLIKKKKEWLEAK, LQRVLEHRRRNQLIKKKKEVLEAK is higher in protein stability index: 2.29 for the first, 3.58 for the second.

First: LQRVLEHRRRNQLIKKKKEFLEAK
Second: LQRVLEHRRWNQLIKKKKEELEAK
The protein stability index of the first is lower: 2.52 for the first, 3.94 for the second.

LQRVLEHRRSNQLIKKKKEELEAK and LQRVLEHRRVNQLIKKKKEELEAK are the same in protein stability index: 3.95 for the first, 3.95 for the second.

First: LQRVLEHRRINQLIKKKKEELEAK
Second: LQRVLEHRRRNTLIKKKKEELEAK
The protein stability index of the first is lower: 3.3 for the first, 3.66 for the second.

First: LQRVLEHRRRNILIKKKKEELEAK
Second: LQRVLEHRRRNALIKKKKEELEAK
The protein stability index of the first is lower: 3.74 for the first, 4.05 for the second.

Going from LQRVLEHRRRNHLIKKKKEELEAK to LQRVLEHRRRNDLIKKKKEELEAK, the protein stability index rises from 3.5 to 3.74.

Compared with LQRVLEHRRRNKLIKKKKEELEAK, LQRVLEHRRRNQLIRKKKEELEAK is lower in protein stability index: 4 for the first, 3.34 for the second.

First: LQRVLEHRRRNQLIMKKKEELEAK
Second: LQRVLEHRRRNQLINKKKEELEAK
The protein stability index of the first is lower: 3.98 for the first, 4 for the second.

Going from LQRVLEHRRRNQLIPKKKEELEAK to LQRVLEHRRRNQLFKKKKEELEAK, the protein stability index falls from 4.18 to 4.1.

Compared with LQRVLEHRRRNQLRKKKKEELEAK, LQRVLEHRRRNQLMKKKKEELEAK is higher in protein stability index: 3.66 for the first, 4.54 for the second.

First: LQRVLEHRRRNQLHKKKKEELEAK
Second: LQRVLEHRRRNQLLKKKKEELEAK
The protein stability index of the first is higher: 3.44 for the first, 3.24 for the second.

Compared with LQRVLEHRRRNQLDKKKKEELEAK, LQRVLEHRRRNQLPKKKKEELEAK is lower in protein stability index: 4.39 for the first, 3.31 for the second.

Compared with LQRVLEHRRRNQLIKKKKEELEAD, LQRVLEHRRRNQLIKKKKEELEAM is lower in protein stability index: 3.89 for the first, 3.3 for the second.

Going from LQRVLEHRRRNQLIKKKKEELEAF to LQRVLEHRRRNQLIKKKKEELEAC, the protein stability index rises from 3.75 to 4.22.

First: LQRVLEHRRRNQLIKKKKEELEAE
Second: LQRVLEHRRRNQLIKKKKEELEAQ
The protein stability index of the first is higher: 4.35 for the first, 3.9 for the second.

Going from TQRVLEHRRRNQLIKKKKEELEAK to IQRVLEHRRRNQLIKKKKEELEAK, the protein stability index falls from 4.72 to 2.73.

Compared with QQRVLEHRRRNQLIKKKKEELEAK, EQRVLEHRRRNQLIKKKKEELEAK is lower in protein stability index: 5.11 for the first, 4.79 for the second.

Compared with MQRVLEHRRRNQLIKKKKEELEAK, LQRVLRHRRRNQLIKKKKEELEAK is higher in protein stability index: 3.64 for the first, 3.81 for the second.

Going from LQRVLWHRRRNQLIKKKKEELEAK to LQRVLEHRRRNQLIKEKKEELEAK, the protein stability index rises from 3.02 to 3.94.

First: LQRVLEHRRRNQLIKQKKEELEAK
Second: LQRVLEHRRRNQLIKDKKEELEAK
The protein stability index of the first is lower: 3.82 for the first, 4.44 for the second.

Compared with LQRVLEHRRRNQLIKYKKEELEAK, LQRVLEHRRRNQLIKNKKEELEAK is higher in protein stability index: 2.41 for the first, 4.07 for the second.

First: LQRVLEHRRRNQLIKKKKEELIAK
Second: LQRVLEHRRRNQLIKKKKEELGAK
The protein stability index of the first is lower: 2.58 for the first, 3.33 for the second.

Going from LQRVLEHRRRNQLIKKKKEELPAK to LQRVLEHRRRNQLIKKKKEELFAK, the protein stability index falls from 2.77 to 2.59.

Compared with LQRVLEHRRRNQLIKKKKEELLAK, LQRVLEHRRRNQLIKKKKEELSAK is lower in protein stability index: 3.08 for the first, 2.96 for the second.

Compared with LQRVLEHRRRNQLIKKKKEELWAK, LQRVWEHRRRNQLIKKKKEELEAK is higher in protein stability index: 2.75 for the first, 3.71 for the second.

Going from LQRVIEHRRRNQLIKKKKEELEAK to LQRVAEHRRRNQLIKKKKEELEAK, the protein stability index rises from 3.2 to 4.08.

Going from LQRVTEHRRRNQLIKKKKEELEAK to LQRVLEHRRRNQLIKKDKEELEAK, the protein stability index rises from 4.38 to 4.78.

Going from LQRVLEHRRRNQLIKKIKEELEAK to LQRVLEHRRRNQLIKKLKEELEAK, the protein stability index rises from 2.58 to 3.5.

First: LQRVLEHRRRNQLIKKHKEELEAK
Second: LQRVLEHRRRNQLIKKMKEELEAK
The protein stability index of the first is higher: 3.52 for the first, 3.16 for the second.

Going from LQRVLEHRRRNQLIKKGKEELEAK to LQRVLEHRRREQLIKKKKEELEAK, the protein stability index falls from 4.27 to 4.16.

Compared with LQRVLEHRRRFQLIKKKKEELEAK, LQRVLEHRRRIQLIKKKKEELEAK is higher in protein stability index: 2.72 for the first, 2.97 for the second.

Compared with LQRVLEHRRRMQLIKKKKEELEAK, LQRVLEHRRRCQLIKKKKEELEAK is lower in protein stability index: 3.4 for the first, 2.83 for the second.

With LQRVLEHRRRQQLIKKKKEELEAK the protein stability index was 3.09.
